Data on 2 molecules can be found in US20250388641A1 (CUGENE, published 2025).

Assay [1] deals with T1, huIL-15Rβ-6His (human, UniProt P14784 27-240, limits assumed).
T1 construct: Coated on the ELISA plate; also called hull-15Rβ-6His; IL-15Rβ subunit
T1 sequence: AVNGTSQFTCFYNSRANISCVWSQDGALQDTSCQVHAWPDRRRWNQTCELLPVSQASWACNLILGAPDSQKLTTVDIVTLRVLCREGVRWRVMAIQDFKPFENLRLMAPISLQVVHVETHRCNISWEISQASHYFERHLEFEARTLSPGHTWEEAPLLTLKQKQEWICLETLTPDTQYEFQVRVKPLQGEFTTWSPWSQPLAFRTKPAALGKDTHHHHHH
The assay can be described thus: ELISA binding EC50 relative to wild type P-0153. As for the experimental part:
(§1) The binding activity was tested in ELISA assay. Briefly, Nunc Maxisorp (ThermoFisher) plates were coated overnight at 4° C. with hull-15Rβ-6His at 1 ug/well (100 μl/well) in bicarbonate buffer pH 9.4 (ThermoFisher). After washing 3 times with PBS/0.05% Tween20, plates were incubated with SuperBlock (300 μl/well) at room temperature for 2 hrs. to block nonspecific binding. After washing, IL-15 compounds each at 3-fold serial dilutions with blocking buffer were added to the plates (100 μl/well) and incubated at room temperature for 1 hr. After washing, the Fc fusions were detected by 1 hr. incubation at room temperature with a goat anti-human IgG Fc secondary antibody conjugated with horseradish peroxidase (HRP) at 1:5000 dilution in blocking buffer (ThermoFisher) (100 μl/well). After washing, TMB substrate (ThermoFisher) was added (100 μl/well). Plates were sealed and incubated 5-20 min at room temperature in dark. Reaction was stopped by adding 2N sulfuric acid (Ricca Chemical) (50 μL/well) and absorbance was read at 450-590 nm.
(In an ELISA, binding on a coated surface is turned into a signal by an enzyme label.)

The target in assay [2] is T1, huIL-15Rβ-6His. Put plainly: ELISA, huIL-15Rβ-6His coated on plate, anti-human IgG Fc-HRP detection. On the procedure:
as §1

In assay [3] the target is T1, huIL-15Rβ-6His. Put plainly: ELISA binding EC50 relative to wild type (3.9 nM). On the procedure: as §1
The target in assay [4] is T1, huIL-15Rβ-6His. Put plainly: ELISA binding to IL-15Rβ, relative to wild type (repeats Table 3). On the procedure: as §1

B1: P-0178, IL-15/IL-15Rα heterodimeric Fc fusion, IL-15i3 (… insertion after N95) (Fc fusion)
chain 1: DKTHTCPPCPAPEAAGAPSVFLFPPKPKDTLMISRTPEVTCVVVDVSHEDPEVKFNWYVDGVEVHNAKTKPREEQYNSTYRVVSVLTVLHQDWLNGKEYKCKVSNKALPAPIEKTISKAKGQPREPQVYTLPPCREEMTKNQVSLSCAVKGFYPSDIAVEWESNGQPENNYKTTPPVLDSDGSFFLVSKLTVDKSRWQQGNVFSCSVMHEALHNHYTQKSLSLSPGEPKSSDKTHTSPPSPNWVNVISDLKKIEDLIQSMHIDATLYTESDVHPSCKVTAMKCFLLELQVISLESGDASIHDTVENLIILANNSLSSNGNVTESGCKECEELEEKNGSSGSSGGSIKEFLQSFVHIVQMFINTS
chain 2: DKTHTCPPCPAPEAAGAPSVFLFPPKPKDTLMISRTPEVTCVVVDVSHEDPEVKFNWYVDGVEVHNAKTKPREEQYNSTYRVVSVLTVLHQDWLNGKEYKCKVSNKALPAPIEKTISKAKGQPREPQVCTLPPSREEMTKNQVSLWCLVKGFYPSDIAVEWESNGQPENNYKTTPPVLDSDGSFFLYSKLTVDKSRWQQGNVFSCSVMHEALHNHYTQKSLSLSPGEPKSSDKTHTSPPSPITCPPPMSVEHADIWVKSYSLYSRERYICNSGFKRKAGTSSLTECVLNKATNVAHWTTPSLKCIRDPALVHQRPAPP
By EC50 is commonly meant the concentration that produces a half-maximal response. Low values mean an effect from little substance, high ones a need for much substance. As for B1, the Fold change in the assay with huIL-15Rβ-6His [1] was determined as 36 fold. Further, the EC50 with huIL-15Rβ-6His [2] came out at 23.1 nM.

B2: P-0181, IL-15/IL-15Rα heterodimeric Fc fusion, IL-15m3 (Q108S, D30T, V31Y, H31E) (Fc fusion)
chain 1: DKTHTCPPCPAPEAAGAPSVFLFPPKPKDTLMISRTPEVTCVVVDVSHEDPEVKFNWYVDGVEVHNAKTKPREEQYNSTYRVVSVLTVLHQDWLNGKEYKCKVSNKALPAPIEKTISKAKGQPREPQVYTLPPCREEMTKNQVSLSCAVKGFYPSDIAVEWESNGQPENNYKTTPPVLDSDGSFFLVSKLTVDKSRWQQGNVFSCSVMHEALHNHYTQKSLSLSPGEPKSSDKTHTSPPSPNWVNVISDLKKIEDLIQSMHIDATLYTESTYEPSCKVTAMKCFLLELQVISLESGDASIHDTVENLIILANNSLSSNGNVTESGCKECEELEEKNIKEFLQSFVHIVSMFINTS
chain 2: B1 chain 2
For the molecule B2, in the assay with huIL-15Rβ-6His [3], the Fold change was 1.4 fold. Further, the “Fold change in binding EC50” value in the assay with huIL-15Rβ-6His [4] stood at 1.4 fold. In the assay with huIL-15Rβ-6His [2], this molecule showed an EC50 of 5.57 nM.
